From paper PMC9352680, “A comprehensive thermodynamic model for RNA binding by the Saccharomyces cerevisiae Pumilio protein PUF4”

T1: PUF4 RNA-binding domain (Saccharomyces cerevisiae, UniProt P25339 537-888)
T1 sequence: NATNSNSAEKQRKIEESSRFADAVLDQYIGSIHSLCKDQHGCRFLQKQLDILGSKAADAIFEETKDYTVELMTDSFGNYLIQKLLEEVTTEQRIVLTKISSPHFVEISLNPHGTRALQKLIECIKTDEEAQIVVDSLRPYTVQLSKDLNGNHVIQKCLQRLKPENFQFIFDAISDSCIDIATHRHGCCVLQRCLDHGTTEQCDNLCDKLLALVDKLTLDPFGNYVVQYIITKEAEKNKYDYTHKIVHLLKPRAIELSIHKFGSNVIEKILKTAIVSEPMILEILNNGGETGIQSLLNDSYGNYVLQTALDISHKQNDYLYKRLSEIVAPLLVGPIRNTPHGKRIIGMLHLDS

B1: Ib_S1_P5E.1_K5.1_C5.1_H5.1_[T1A]_A5.1_F5.1_[A10G]_T5.1 (ssRNA)
RNA: UCUCUUAGUAUUAUUGUCUCUU
B2: Ib_S1_P5E.1_K5.1_C5.1_H5.1_[T1G]_A5.1_F5.1_[A10G]_T5.1 (ssRNA)
RNA: UCUCUUGGUAUUAUUGUCUCUU
B3: Ib_S1_P5E.1_K5.1_C5.1_H5.1_[A4T]_A5.1_F5.1_[T9A]_T5.1 (ssRNA)
RNA: UCUCUUUGUUUUAUAAUCUCUU
B4: Ib_S1_P5E.1_K5.1_C5.1_H5.1_[T1G]_A5.1_F5.1_[A10C]_T5.1 (ssRNA)
RNA: UCUCUUGGUAUUAUUCUCUCUU
B5: Id_ii_S2_P4E.2_K4.1_C4.2_[C-2G]_H4.1_A4.1_F4.1_T4.2_[G10T]_[T11C] (ssRNA)
RNA: UUUGAUUAAUAUGAUAUCGUUCUUUCUGUUGUAUAUUAUCUUCUUUCUCGAUAUCAUAUUAAUCUUU
B6: Id_ii_S2_P4E.2_K4.1_C4.2_[C-2A]_[T-1C]_H4.1_A4.1_F4.1_T4.2_[G10T]_[T11A] (ssRNA)
RNA: UUUGAUUAAUAUGAUAUCGUUCUUUCUACUGUAUAUUAUAUUCUUUCUCGAUAUCAUAUUAAUCUUU
B7: Id_ii_S2_P4E.2_K4.1_C4.2_[C-2A]_[T-1G]_H4.1_A4.1_F4.1_T4.2_[G10A] (ssRNA)
RNA: UUUGAUUAAUAUGAUAUCGUUCUUUCUAGUGUAUAUUAAUUUCUUUCUCGAUAUCAUAUUAAUCUUU
B8: Id_ii_S2_P4E.2_K4.1_C4.2_[C-2G]_H4.1_A4.1_F4.1_T4.2_[G10T]_[T11A] (ssRNA)
RNA: UUUGAUUAAUAUGAUAUCGUUCUUUCUGUUGUAUAUUAUAUUCUUUCUCGAUAUCAUAUUAAUCUUU
B9: Id_ii_S2_P4E.2_K4.1_C4.2_[C-2A]_[T-1G]_H4.1_A4.1_F4.1_T4.2_[G10T]_[T11C] (ssRNA)
RNA: UUUGAUUAAUAUGAUAUCGUUCUUUCUAGUGUAUAUUAUCUUCUUUCUCGAUAUCAUAUUAAUCUUU
B10: Id_ii_S2_P4E.2_K4.1_C4.2_[C-2T]_H4.1_A4.1_F4.1_T4.2_[G10T] (ssRNA)
RNA: UUUGAUUAAUAUGAUAUCGUUCUUUCUUUUGUAUAUUAUUUUCUUUCUCGAUAUCAUAUUAAUCUUU
B11: Id_ii_S2_P4E.2_K4.1_C4.2_[C-2T]_[T-1G]_H4.1_A4.1_F4.1_T4.2_[G10T]_[T11G] (ssRNA)
RNA: UUUGAUUAAUAUGAUAUCGUUCUUUCUUGUGUAUAUUAUGUUCUUUCUCGAUAUCAUAUUAAUCUUU
B12: Id_ii_S2_P4E.2_K4.1_C4.2_[C-2T]_H4.1_A4.1_F4.1_T4.2_[G10C]_[T11C] (ssRNA)
RNA: UUUGAUUAAUAUGAUAUCGUUCUUUCUUUUGUAUAUUACCUUCUUUCUCGAUAUCAUAUUAAUCUUU
B13: Id_ii_S2_P4E.2_K4.1_C4.2_[C-2T]_H4.1_A4.1_F4.1_T4.2_[T11C] (ssRNA)
RNA: UUUGAUUAAUAUGAUAUCGUUCUUUCUUUUGUAUAUUAGCUUCUUUCUCGAUAUCAUAUUAAUCUUU
B14: Id_ii_S2_P4E.2_K4.1_C4.2_[C-2T]_[T-1A]_H4.1_A4.1_F4.1_T4.2 (ssRNA)
RNA: UUUGAUUAAUAUGAUAUCGUUCUUUCUUAUGUAUAUUAGUUUCUUUCUCGAUAUCAUAUUAAUCUUU
B15: Id_ii_S2_P4E.2_K4.1_C4.2_[C-2T]_[T-1C]_H4.1_A4.1_F4.1_T4.2_[G10A]_[T11C] (ssRNA)
RNA: UUUGAUUAAUAUGAUAUCGUUCUUUCUUCUGUAUAUUAACUUCUUUCUCGAUAUCAUAUUAAUCUUU
B16: Id_ii_S2_P4E.2_K4.1_C4.2_[C-2T]_H4.1_A4.1_F4.1_T4.2_[G10C] (ssRNA)
RNA: UUUGAUUAAUAUGAUAUCGUUCUUUCUUUUGUAUAUUACUUUCUUUCUCGAUAUCAUAUUAAUCUUU
B17: Id_ii_S2_P4E.2_K4.1_C4.2_[C-2G]_H4.1_A4.1_F4.1_T4.2_[G10A] (ssRNA)
RNA: UUUGAUUAAUAUGAUAUCGUUCUUUCUGUUGUAUAUUAAUUUCUUUCUCGAUAUCAUAUUAAUCUUU
B18: Id_ii_S2_P4E.2_K4.1_C4.2_[C-2T]_[T-1G]_H4.1_A4.1_F4.1_T4.2_[G10T]_[T11C] (ssRNA)
RNA: UUUGAUUAAUAUGAUAUCGUUCUUUCUUGUGUAUAUUAUCUUCUUUCUCGAUAUCAUAUUAAUCUUU
B19: Id_ii_S2_P4E.2_K4.1_C4.2_[C-2T]_[T-1A]_H4.1_A4.1_F4.1_T4.2_[G10C]_[T11C] (ssRNA)
RNA: UUUGAUUAAUAUGAUAUCGUUCUUUCUUAUGUAUAUUACCUUCUUUCUCGAUAUCAUAUUAAUCUUU
B20: Id_ii_S2_P4E.2_K4.1_C4.2_[C-2T]_[T-1C]_H4.1_A4.1_F4.1_T4.2 (ssRNA)
RNA: UUUGAUUAAUAUGAUAUCGUUCUUUCUUCUGUAUAUUAGUUUCUUUCUCGAUAUCAUAUUAAUCUUU
B21: Id_ii_S2_P4E.2_K4.1_C4.2_[C-2T]_H4.1_A4.1_F4.1_T4.2_[G10T]_[T11A] (ssRNA)
RNA: UUUGAUUAAUAUGAUAUCGUUCUUUCUUUUGUAUAUUAUAUUCUUUCUCGAUAUCAUAUUAAUCUUU
B22: Id_ii_S2_P4E.2_K4.1_C4.2_[C-2T]_H4.1_A4.1_F4.1_T4.2_[G10T]_[T11C] (ssRNA)
RNA: UUUGAUUAAUAUGAUAUCGUUCUUUCUUUUGUAUAUUAUCUUCUUUCUCGAUAUCAUAUUAAUCUUU

What follows are binders tested against T1, PUF4 RNA-binding domain (assay: Mg; RNA-MaP; 20 mM Na-HEPES pH 7.4, 30 mM KOAc, 0.75 mM MgCl2, 0.1% Tween-20, 5% glycerol, 0.1 mg/mL BSA, 2 mM DTT; 25 C; 0.0125-409.6 nM protein). Settings: tags: N-His6-TEV cleaved; C-SNAP kept, Cy3B-labelled; label: tethered on chip by stalled RNA polymerase.
B1 was tested, and the Kd was > 2300 nM.
In the case of B2, the Kd is reported as > 2300 nM.
For B3, the Kd was 87.4 nM.
For B4, the Kd was > 2300 nM.
In the case of B5, the Kd is reported as 1.6 nM.
B6 gave a Kd of 0.628 nM.
In the case of B7, the Kd is reported as 0.973 nM.
B8 was tested, and the Kd was 0.928 nM.
Binder B9 has a Kd of 2.27 nM.
With B10 the Kd was 0.26 nM.
With B11 the Kd was 0.416 nM.
For B12, the Kd was 0.557 nM.
For B13, the Kd was 0.396 nM.
B14 was tested, and the Kd was 0.715 nM.
B15 gave a Kd of 0.526 nM.
B16 gave a Kd of 0.762 nM.
Work on B17 yielded a Kd of 0.724 nM.
Work on B18 yielded a Kd of 0.441 nM.
With B19 the Kd was 0.822 nM.
With B20 the Kd was 0.446 nM.
For B21, the Kd was 0.564 nM.
With B22 the Kd was 0.364 nM.
